Columns and labels:
Assay in all cases: pull-down binding Z-score (relative to library population); higher = stronger binding
Settings in all cases: RNA library: Library-2
[1] = test system: TO-3-N3 (biotin conjugate)
Procedure, shortened: (§1)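 Streptavidin beads bearing 100 pmol of a biotin-conjugated small molecule were incubated for 60 min at 25 °C with 1 μg of heat-folded, Cy5- or Cy3-end-labelled RNA library in phosphate/NaCl/KCl buffer. Hot SDS eluted the RNA that stayed bound after three washes, and this RNA was hybridised for 20 h at 55.5 °C to a DNA barcode microarray. Binding was expressed as a Z-score against the library mean and standard deviation, after subtraction of a beads-only signal and trimmed averaging of barcoded replicate probes.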

[2] = test system: TO-N3-2 (biotin conjugate)
Procedure, shortened: as §1

[3] = test system: TO-N3 (biotin conjugate)
Procedure, shortened: as §1

[4] = test system: TO-3-N3-2 (biotin conjugate)
Procedure, shortened: as §1

Row | Sequence | pull-down binding Z-score [1] | pull-down binding Z-score [2] | pull-down binding Z-score [3] | pull-down binding Z-score [4]
1 | GGAGUUCAAAUUGCUUCC [IAV_invivo_NP_5_Motif_19+IAV_invivo_NP_5_Motif_19] | -0.502 | -0.604 | -0.561 | -0.404
2 | GGAUCCCGACUGGCGAGAGCCAGGUAACGAAUGGAUCC [MG-aptamer] | -0.00379 | 2.4 | 0.277 | -0.524
3 | GGAUGAGAGAACUCAUCC [IAV_invivo_NP_5_Motif_6+IAV_invivo_NP_5_Motif_6] | -0.302 | -0.939 | -0.724 | -0.323
4 | GGAUGGUCUUCAAUCC [IAV_invivo_PB1_2_Motif_23+IAV_invivo_PB1_2_Motif_23] | -0.481 | -0.515 | -0.47 | -0.137
5 | GGAUGGUUACAGGACUAAGGAACAAUCCGUCC [IAV_invivo_HA_4_Motif_14+IAV_invivo_HA_4_Motif_14] | -0.461 | -0.0521 | -0.295 | -0.14
6 | GGAUGUCAAUCC [IAV_invivo_PB1_2_Motif_2+IAV_invivo_PB1_2_Motif_2] | 0.302 | -0.856 | 0.0736 | -0.17
7 | GGAUUGUACAGAAAGUGUGUUAAAUCC [SHAPE_invivo_SARS-CoV-2_Motif_47] | -0.22 | -0.185 | -0.222 | 0.139
8 | GGAUUUCUGGACAUUUGGACAUAUAAUGCAGAAUUGUUAGUUCUACUGGAAAAUGAAAGGACUCUGGAUUUCC [IAV_invivo_HA_4_Motif_17+IAV_invivo_HA_4_Motif_17] | -0.659 | 0.395 | -0.198 | 0.4
9 | GGCAACUAGCACUCUCCAAGGGUGUUCACUUUGUUUGCAACUUGCUGUUGUUGUUUGUAACAGUUUACUCACACCUUUUGCUCGUUGCU [SHAPE_invitro_SARS-CoV-2_Motif_465] | -0.318 | -0.0997 | -0.358 | -0.205
10 | GGCACAAAUGCAACACUGCAUUACCAUGCGGUUGUGCC [3-way model-1_rpoH] | -1.03 | -1.27 | -1.42 | -0.624
11 | GGCAGACGUGGUCCAGAACAAACCCAAGGAAAUUUUGGGGACCAGGAACUAAUCAGACAAGGAACUGAUUACAAACAUUGGCC | 0.608 | 0.614 | 0.753 | 0.536
12 | GGCAGCGAGCC [IAV_invivo_NP_5_Motif_25+IAV_invivo_NP_5_Motif_25] | -0.756 | -0.713 | -1.01 | -0.633
13 | GGCAGUUUGUAUGUAAAUAAACAUGCAUUCC [SHAPE_invivo_SARS-CoV-2_Motif_362] | 0.0152 | -0.727 | -0.216 | -0.171
14 | GGCAUCAUAUGGGUUGCAACUGAGGGAGCCUUGAAUACACCAAAAGAUCACAUUGGCACCCGCAAUCCUGCUAACAAUGCU [DMSMaPseq_invitro_SARS-CoV-2_Motif_513] | -0.63 | 0.342 | -0.253 | -0.241
15 | GGCAUCUGCGGGCC [IAV_invivo_NP_5_Motif_21+IAV_invivo_NP_5_Motif_21] | -0.637 | -0.239 | -0.759 | -0.641
16 | GGCCAGCAGAGGCC [IAV_invivo_PA_3_Motif_7+IAV_invivo_PA_3_Motif_7] | 0.905 | -0.109 | 0.703 | 0.0485
17 | GGCCAGGUUUCAAGGCC [IAV_invivo_PA_3_Motif_22+IAV_invivo_PA_3_Motif_22] | -0.64 | -0.29 | -0.785 | -0.644
18 | GGCCAUUAGAGGCC [IAV_invivo_PB2_1_Motif_29+IAV_invivo_PB2_1_Motif_29] | 0.0791 | -1.06 | -0.257 | -0.69
19 | GGCCCGAGUGAUGGGCU [IAV_invivo_NA_6_Motif_9+IAV_invivo_NA_6_Motif_9] | -0.127 | 0.201 | -0.27 | -0.29
20 | GGCCGCAAAUUGCACAAUUUGCCCCC [SHAPE_invivo_SARS-CoV-2_Motif_557] | 0.76 | -0.213 | 0.62 | -0.187
21 | GGCCUCACGGCC [IAV_invivo_PB1_2_Motif_9+IAV_invivo_PB1_2_Motif_9] | 0.0835 | -0.914 | -0.332 | -0.354

Row | Sequence | pull-down binding Z-score [1] | pull-down binding Z-score [2] | pull-down binding Z-score [3] | pull-down binding Z-score [4]
22 | GGCCUGGGCCUGGGCCUGGGCCUGGGCCUGGGCCUG [r(GGCCUG)6] | 0.00804 | 0.12 | -0.184 | -0.435
23 | GGCCUUGAAGCC [SHAPE_invitro_SARS-CoV-2_Motif_466] | -0.406 | -0.459 | -0.703 | -0.216
24 | GGCGAAUCUGGCGCC [IAV_invivo_NP_5_Motif_7+IAV_invivo_NP_5_Motif_7] | 0.577 | 0.288 | 0.493 | -0.231
25 | GGCGAUAGUUGUAAUAACUAUAUGCU | -1.04 | -0.976 | -1.31 | -0.564
26 | GGCGAUUUUGUUAAAGCCACUUGCGAAUUUUGUGGCACUGAGAAUUUGACUAAAGAAGGUGCCACUACUUGUGGUUACUUACCCCAAAAUGCU | 0.452 | 0.59 | 0.66 | 0.278
27 | GGCGUAAGUCUGAUACUUACCUG [U1snRNP5ss-10] | 0.212 | 1.08 | 0.668 | 0.0886
28 | GGCGUCUCAAGGCACC [IAV_invivo_NP_5_Motif_2+IAV_invivo_NP_5_Motif_2] | 0.308 | -0.084 | 0.151 | -0.687
29 | GGCGUUGUCCUGCUGAAAUUGUUGACACUGUGAGUGCUUUGGUUUAUGAUAAUAAGCUUAAAGCACAUAAAGACAAAUCAGCUCAAUGCU | -0.58 | 0.182 | -0.324 | -0.302
30 | GGCUAUGGUUUCCAGAGCC [IAV_invivo_PB1_2_Motif_37+IAV_invivo_PB1_2_Motif_37] | 0.417 | -0.356 | 0.285 | -0.179
31 | GGCUAUGUAACACAUGGCU | -0.114 | -1.06 | -0.351 | -0.449
32 | GGCUCAUAGACUUCCUUAAGGAUGUAAUGGAGUC [IAV_invivo_PB1_2_Motif_10+IAV_invivo_PB1_2_Motif_10] | 0.164 | 1.62 | 0.795 | -0.15
33 | GGCUGGAUCGAGUGAGCAAGCAGCAGAGGCC [IAV_invivo_M1_M2_7_Motif_14+IAV_invivo_M1_M2_7_Motif_14] | 0.316 | 2.47 | 1.37 | 0.757
34 | GGCUGGUGGCACUACUGAAAUGCUAGCGAAAGCUUUGAGAAAAGUGCCAACAGAC | 0.234 | 0.4 | 0.418 | -0.33
35 | GGCUGUAGUUGUGAUCAACUCCGCGAACCCAUGCUUCAGUCAGCUGAUGCACAAUCGUUUUUAAACGGGUUUGCGGUGUAAGUGCAGCC [DMSMaPseq_invitro_SARS-CoV-2_Motif_241] | -0.355 | 0.388 | -0.133 | -0.0355
36 | GGCUUCAUCAAACAAUAUGGUGAUUGCC | -0.151 | -1.01 | -0.484 | -0.331
37 | GGCUUCAUUUAAUUAUUUGAAGUC | -0.867 | -1.75 | -1.24 | -0.711
38 | GGGAAAGAAGUCCU [IAV_invivo_HA_4_Motif_8+IAV_invivo_HA_4_Motif_8] | -0.398 | -0.872 | -0.705 | -0.278
39 | GGGAAGAACACC [IAV_invivo_M1_M2_7_Motif_3+IAV_invivo_M1_M2_7_Motif_3] | 1.13 | -0.0552 | 0.899 | 5.36e-05
40 | GGGAAGGCGAAAGACC [IAV_invivo_PA_3_Motif_21+IAV_invivo_PA_3_Motif_21] | 0.143 | 1.12 | 0.603 | 0.289
41 | GGGAAUAUAAUCUC [IAV_invivo_NA_6_Motif_2+IAV_invivo_NA_6_Motif_2] | 1.52 | -0.715 | 1.33 | 0.038
42 | GGGACUGAGAAUUAGCUCAUCCU [IAV_invivo_PB2_1_Motif_14+IAV_invivo_PB2_1_Motif_14] | -0.573 | 0.208 | -0.536 | -0.318

Row | Sequence | pull-down binding Z-score [1] | pull-down binding Z-score [2] | pull-down binding Z-score [3] | pull-down binding Z-score [4]
43 | GGGACUUAUGAUUAUCCC [IAV_invivo_HA_4_Motif_18+IAV_invivo_HA_4_Motif_18] | 0.293 | -0.911 | -0.122 | 0.126
44 | GGGAGAGACGAACAGUCGAUUGCC [IAV_invivo_PB2_1_Motif_17+IAV_invivo_PB2_1_Motif_17] | -0.434 | 0.839 | 0.0259 | -0.268
45 | GGGAGAUAACAUUCC [IAV_invivo_M1_M2_7_Motif_7+IAV_invivo_M1_M2_7_Motif_7] | -0.149 | -0.107 | -0.16 | -0.0296
46 | GGGAGAUUAAUGGUCCU [IAV_invivo_PB2_1_Motif_25+IAV_invivo_PB2_1_Motif_25] | 0.341 | 0.225 | 0.327 | 0.00669
47 | GGGAGCAAACCC [IAV_invivo_PB1_2_Motif_31+IAV_invivo_PB1_2_Motif_31] | -0.179 | 0.11 | -0.425 | -0.259
48 | GGGAGCUAUAAACAGCAGUCUCCC [IAV_invivo_HA_4_Motif_12+IAV_invivo_HA_4_Motif_12] | 0.403 | 0.468 | 0.537 | 0.213
49 | GGGAGUCUUCGAGCUCUC [IAV_invivo_NP_5_Motif_24+IAV_invivo_NP_5_Motif_24] | -0.194 | -0.555 | -0.358 | -0.548
50 | GGGAUUAUCCU | -0.811 | -0.985 | -0.927 | -0.465
51 | GGGCAAGCUGUCUCAAAUGUCC [IAV_invivo_PA_3_Motif_10+IAV_invivo_PA_3_Motif_10] | -0.508 | 0.0264 | -0.543 | -0.226
52 | GGGCCACUGCCAGAAGACAAUGAACCAAGUGGUUAUGCCC [IAV_invivo_PB1_2_Motif_5+IAV_invivo_PB1_2_Motif_5] | -0.323 | 0.713 | 0.0266 | 0.0011
53 | GGGCCUCCCUGUUCUCAGCGGUCC [IAV_invivo_PA_3_Motif_11+IAV_invivo_PA_3_Motif_11] | -0.00636 | -0.287 | -0.152 | -0.456
54 | GGGCUAGAUUCCC [DMSMaPseq_invitro_SARS-CoV-2_Motif_228] | -0.623 | -0.533 | -0.867 | -0.264
55 | GGGCUCAGAAUAUGACUAUGUCAUAUUCACUCAAACCACUGAAACAGCUC [SHAPE_invitro_SARS-CoV-2_Motif_328] | -0.515 | -0.4 | -0.428 | 0.0239
56 | GGGCUCAUACCC [IAV_invivo_HA_4_Motif_7+IAV_invivo_HA_4_Motif_7] | 0.721 | 0.397 | 0.483 | 0.875
57 | GGGCUGUGACCACUGAAGUGGCAUUUGGCCU [IAV_invivo_M1_M2_7_Motif_9+IAV_invivo_M1_M2_7_Motif_9] | -0.255 | 0.272 | -0.176 | -0.255
58 | GGGGACGACCU [IAV_invivo_NA_6_Motif_17+IAV_invivo_NA_6_Motif_17] | 0.479 | -0.0675 | 0.481 | -0.417
59 | GGGGAUCUAUCAGAUUCUGGCGAUCUACUCAACUGUCGCCAGUUCACUGGUGCUUUUGGUCUCC [IAV_invivo_HA_4_Motif_19+IAV_invivo_HA_4_Motif_19] | 0.57 | 0.69 | 0.629 | 0.123
60 | GGGGCCGGGGCCGGGGCCGGGGCCGGGGCCGGGGCC [G4_r(GGGGCC)8] | 4.47 | 3.77 | 3.9 | 4.66
61 | GGGGCGUUUAUGCAACCC [IAV_invivo_PB1_2_Motif_33+IAV_invivo_PB1_2_Motif_33] | -0.754 | -0.334 | -0.497 | -0.277

Reference: the supplement of paper PMC11865577
